# Experimental data taken from patent US7262279B2, “Lactoferrin in the treatment of diabetes mellitus” (Agennix, Inc., priority 2003, dated 2007).
# Assays:
# Format in all cases: in vivo
# [1] = tested on: non-insulin dependent diabetic mellitus (NIDDM) male mice C57BLK/J-m+/Lepr db; assay: Serum glucose after oral rhLF for 15 days in diabetic db/db mice; conditions: Day 15 Post (90 min after dosing), fasted 3 h, relative to placebo
# Experimental: (§1) RhLF (650 mg/kg and 65 mg/kg) and vehicle/placebo (rhLF diluent buffer pH 7.0) were administered orally once daily for 15 consecutive days to groups of 4 non-insulin dependent diabetic mellitus (NIDDM) male mice. […] All animals were allowed free access to normal laboratory chow and water. Blood samples were withdrawn from the orbital sinus immediately before dosing on day 1 (Day 1 Pre) and 90 minutes after the first administration on day 15 (Day 15 Post). The animals were fasted for 3 hours prior to sampling. Serum glucose levels were determined by enzymatic method (mutaratase-GOD). Four animals per cohort were studied. Reduction and p-value (1-tailed) were determined relative to placebo.
# [2] = tested on: non-insulin dependent diabetic mellitus (NIDDM) male mice (C57BLKS/J-m+/+Lepr db); assay: Serum glucose and total body weight after oral rhLF for 20 days in diabetic mice; conditions: 65 mg/kg orally via gavage once per day for 20 days
# Experimental: Five groups of 6 non-insulin dependent diabetic mellitus (NIDDM) male mice (C57BLKS/J-m+/+Lepr db) weighing 50±grams and 9-10 weeks old were given either rhLF vehicle (Placebo), or RhLF (65 mg/kg) orally via gavage for 20 days (once per day) in a volume of 0.13 ml. Blood samples were obtained from the orbital sinus on day 0 and day 20 at 90 minutes following the last administration. Animals were fasted for 3 hours prior to sampling. Serum glucose levels were determined by enzymatic method (mutaratase-GOD). Total body weight measurements were determined on days 0 and 20. Percentage differences were determined with respect to pre-treatment values and analyzed statistically with the unpaired Student' t test. Differences were considered significant at p values of less than 0.05.
# [3] = tested on: non-insulin dependent diabetic mellitus (NIDDM) male mice (C57BLKS/J-m+/+Lepr db); assay: Serum glucose after topical rhLF gel for 20 days in diabetic mice; conditions: RhLF gel (1%) topically, 0.2 mg per mouse once per day for 20 days onto a 12 mm punch excision; day 20; with respect to pre-treatment values
# Experimental: Two groups of 6 non-insulin dependent diabetic mellitus (NIDDM) male mice (C57BLKS/J-m+/+Lepr db) weighing 50+grams and 9-10 weeks old were given either rhLF vehicle (Placebo), or RhLF gel (1%) topically (0.2 mg per mouse/once per day) for 20 days applied directly onto a 12 mm punch excision. Blood samples were obtained from the orbital sinus on day 0 and day 20 at 90 minutes. The animals were fasted for 3 hours prior to sampling. Serum glucose levels were determined by enzymatic method (mutaratase-GOD). Percentage differences were determined with respect to pre-treatment values and analyzed statistically with the unpaired Student' t test. Differences were considered significant at p values of less than 0.05 (FIG. 4).
# [4] = tested on: non-insulin dependent diabetic mellitus (NIDDM) male mice (C57BLK/J-m+/Lepr db); assay: Serum insulin (ELISA) after oral rhLF for 15 days in diabetic mice; conditions: 650 and 65 mg/kg orally once daily for 15 days, Day 15 Post, fasted 3 h
# Experimental: as §1, with “(650” for “(650 mg/kg”, “last” for “first”, “sampling.” for “sampling. Serum glucose levels were determined by enzymatic method (mutaratase-GOD). Four animals per cohort were studied. Reduction and p-value (1-tailed) were determined relative to placebo.”
molecule,measurement,setting,value
"RhLF: Recombinant human lactoferrin, a single chain metal binding glycoprotein; given orally in diluent buffer or topically as 1% gel (protein, UniProt P02788 20-710, looked up) Lactotransferrin: GRRRSVQWCAVSQPEATKCFQWQRNMRKVRGPPVSCIKRDSPIQCIQAIAENRADAVTLDGGFIYEAGLAPYKLRPVAAEVYGTERQPRTHYYAVAVVKKGGSFQLNELQGLKSCHTGLRRTAGWNVPIGTLRPFLNWTGPPEPIEAAVARFFSASCVPGADKGQFPNLCRLCAGTGENKCAFSSQEPYFSYSGAFKCLRDGAGDVAFIRESTVFEDLSDEAERDEYELLCPDNTRKPVDKFKDCHLARVPSHAVVARSVNGKEDAIWNLLRQAQEKFGKDKSPKFQLFGSPSGQKDLLFKDSAIGFSRVPPRIDSGLYLGSGYFTAIQNLRKSEEEVAARRARVVWCAVGEQELRKCNQWSGLSEGSVTCSSASTTEDCIALVLKGEADAMSLDGGYVYTAGKCGLVPVLAENYKSQQSSDPDPNCVDRPVEGYLAVAVVRRSDTSLTWNSVKGKKSCHTAVDRTAGWNIPMGLLFNQTGSCKFDEYFSQSCAPGSDPRSNLCALCIGDEQGENKCVPNSNERYYGYTGAFRCLAENAGDVAFVKDVTVLQNTDGNNNEAWAKDLKLADFALLCLDGKRKPVTEARSCHLAMAPNHAVVSRMDKVERLKQVLLHQQAKFGRNGSDCPDKFCLFQSETKNLLFNDNTECLARLHGKTTYEKYLGPQYVAGITNLKKCSTSPLLEACEFLRK",reduction in serum glucose,[1]; 65 mg/kg orally once daily for 15 days,14.6%
same,reduction in serum glucose,[1]; 650 mg/kg orally once daily for 15 days,19.0%
same,reduction in serum glucose,"[2]; day 20, 90 min after last administration, with respect to pre-treatment values",13.8%
same,reduction in body weight,[2]; day 20 vs day 0,7.7%
same,reduction of serum glucose,[3],10.9%
same,serum insulin levels,[4],increase
